Data taken from the supplement of paper PMC10567573.
± gives the standard deviation.

Assay: protein stability index of a GFP-peptide fusion (GPS, HEK-293T) (PSI 1-6); higher = more stable
Details: c terminus: a fixed tail appended
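Note: 24-mer peptide tiles fused after GFP, lentivirally expressed, FACS-sorted into six equal bins by GFP/DsRed ratio, decoded by Illumina sequencing, PSI is the read-weighted mean bin number.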

Sequence | protein stability index (treatment: DMSO) | protein stability index (treatment: MLN4924 1 uM, 8 h)
PAQRSHTYTHGLGLHRRPGAGHCS | 3.52 ± 0.12 | 3.46 ± 0.3
PCSFVCWYRPMYKAFRSDSSFNFF [SCAMP3] | 2.86 ± 0.77 | 2.6 ± 0.5
PCSVIRPILKRLERPQDRDTPVQN [CDC25B] | 4.31 ± 0.15 | 4.51 ± 0.066
PCVIESLRTLDKKTFYKTADISQM [TAF7L] | 2.33 ± 0.34 | 2.41 ± 0.23
PDAIRSRSNTLRERSQVRGSAPPR [PCDHGC5] | 5 ± 0.33 | 4.84 ± 0.23
PDDYRCSYRIHNGQKLVVPGLLGS [FBXO3] | 2.68 ± 0.46 | 2.66 ± 0.34
PDLRQDFNMMEQKKRVSMILQSPA [ADD1] | 3.7 ± 0.32 | 3.78 ± 0.23
PDQLPQNNTLVALPIVAIENILSF [FBXO28] | 2.34 ± 0.24 | 2.38 ± 0.27
PDSVPSLQNMGLLLDKLAKENQDI [PBXIP1] | 4.48 ± 0.18 | 4.42 ± 0.15
PDYGVPSSAASLIDFLRVVRNQQS [PTPN9] | 2.84 ± 0.24 | 3.14 ± 0.25
PEFVAPEIVNYEPLGLEADMWSIG [DAPK3] | 3.46 ± 0.24 | 3.93 ± 0.7
PELTAALRDIRAQYESIAAKNLQE [PRPH] | 3.52 ± 0.65 | 3.8 ± 0.48
PEVILELGWAQPCDVWSIGCILFE [CLK3] | 2.63 ± 0.5 | 3.55 ± 1
PEVTSALLESLNQQRLQGQLCDVS [ZBTB22] | 3.57 ± 0.23 | 3.65 ± 0.35
PFKQVAEMLSASRYPTISMVKPLL [ZBED1] | 1.97 ± 0.4 | 2.19 ± 0.38
PFTVYQVRWLRPVHRQLGEANEEF [AUP1] | 2.43 ± 0.34 | 2.33 ± 0.32
PGGVYAGPEPPPVYTNLSSYSPAS [JUNB] | 3.94 ± 0.27 | 4.18 ± 0.41
PGKALGPAATMAVELHYEEGSPRN [C2CD2L] | 4.81 ± 0.29 | 4.82 ± 0.21
PGNKGRGQRGNTESKTDGDDTETV [TCF25] | 5.57 ± 0.3 | 5.54 ± 0.3
PGTGKTSLCKALAQKLTIRLSSRY [TRIP13] | 2.92 ± 0.64 | 2.63 ± 0.65
PHVALAVRYNRVGILRRILRTLRD [ANKRD9] | 2.73 ± 0.073 | 2.84 ± 0.3
PIAPEVEDPEENPYGPPPDAVQTS [RBBP5] | 5.56 ± 0.17 | 5.54 ± 0.19

Sequence | protein stability index (treatment: DMSO) | protein stability index (treatment: MLN4924 1 uM, 8 h)
PIPWFLPESRSLPSSPLRLGSYKA [PPEF2] | 2.99 ± 0.16 | 3.11 ± 0.48
PISPSTEVGGSGIGTPPSVLKRQR [MYBL2] | 5.36 ± 0.24 | 4.97 ± 0.36
PIVPKIAGDGDTSNFETYPENDWD [PRKX] | 5.51 ± 0.17 | 5.37 ± 0.32
PKGSLSMGPAPRARPWTRDSASLP [RASAL3] | 3.81 ± 0.13 | 4.04 ± 0.4
PKPLTRKPILLQRMEGSQEVVNMA [WDFY2] | 3.66 ± 0.049 | 3.65 ± 0.41
PLDILAQPLEASNPALEGLTQPLQ [DNAAF3] | 4.9 ± 0.28 | 4.78 ± 0.16
PLIKATVGLIRNLALCPANHAPLR [CTNNB1] | 2.39 ± 0.47 | 2.55 ± 0.43
PMLWNPSGTPKRYSLELGKAIKQK [C22orf31] | 3.59 ± 0.23 | 3.56 ± 0.14
PPLPGDMSTGPIAESWCYTQVKVV [SPOPL] | 2.27 ± 0.15 | 2.38 ± 0.33
PPLPPPDDPATLGPHLGLRGVPQS [DYRK1B] | 4.9 ± 0.23 | 4.91 ± 0.14
PPPPPSPSSLGPLLPLQREPLYNW [BTBD1] | 3.78 ± 0.15 | 3.73 ± 0.25
PPQSPQGASSLPTTMNYPLWSQSY [MAGEA3] | 3.45 ± 0.21 | 3.47 ± 0.22
PPRQALGSLCSPWAAPRVGPLPPA [YPEL3] | 3.16 ± 0.51 | 3.2 ± 0.44
PQAPDPEEEENRDSQQPGKRRKDS [FANCE] | 5.74 ± 0.21 | 5.62 ± 0.3
PQQYMAFLPHHIMVKIFRLLPTKS [FBXO34] | 2.23 ± 0.38 | 2.07 ± 0.39
PRGRLDLATQSLTVETCRALGKLL [LRRC45] | 2.38 ± 0.28 | 2.31 ± 0.31
PRNSCITCPQCHRSLILDDRGLRG [TRIM9] | 2.58 ± 0.27 | 3 ± 0.45
PRPDMAPELTPEEEQATKQFLEEI [PTPN9] | 5.12 ± 0.48 | 5.08 ± 0.62
PRVPEEAAQDRPMSPGDCPPETTE [YJU2B] | 5.46 ± 0.26 | 5.4 ± 0.37
PRYREDPCKQCKKKYVKGDVSLCR [FBXO34] | 2.99 ± 0.45 | 3.35 ± 0.24
PSEDIWKKFELVPSPPTSPPWGLG [MYCL] | 3.04 ± 0.36 | 2.9 ± 0.37
PSGTPTNLRRHVPDLESGSESGAD [DLC1] | 5.47 ± 0.33 | 5.46 ± 0.1

Sequence | protein stability index (treatment: DMSO) | protein stability index (treatment: MLN4924 1 uM, 8 h)
PSLDSRQRLDYEREIQPTAILSLD [SPRY1] | 4.39 ± 0.16 | 4.53 ± 0.22
PTAATTQNPVLSKLLMADQDSPLD [LCOR] | 4.9 ± 0.17 | 4.87 ± 0.19
PVKKQLQGASWELQSLRPHDEDIK [ZNF396] | 4.62 ± 0.21 | 4.72 ± 0.38
PVPGKTLHLPIMGVVMKVRIPTCH [DENND6A] | 2.43 ± 0.72 | 2.45 ± 0.38
PVQELPPSLRAPPPGGWPLQPRVQ [ZMAT5] | 4.02 ± 0.39 | 4.18 ± 0.25
PVTNNLLEKCKTLVSQSNDLSSLR [SPACA9] | 3.04 ± 0.2 | 3.14 ± 0.24
PVTPLGLQNEVPPQPDPVFLEALS [SERTAD3] | 4.55 ± 0.33 | 4.46 ± 0.27
PVVWWLNLLSIALYLLSGSIIAVA [POMT2] | 3.27 ± 0.14 | 3.43 ± 0.18
PWVYILLRKAVLKNLYKLASQCCG [PTGFR] | 2.09 ± 0.26 | 2.22 ± 0.45
PYAMKPIDYYTETKILQERAVLGA [NSDHL] | 2.85 ± 0.14 | 3.06 ± 0.18
PYVSDGNFSNYYVAHPPVTYSQPY [TENT5C] | 2.55 ± 0.39 | 2.62 ± 0.38
QDDLENPMLETASKLLLSGTADGA [ANKRD17] | 5.14 ± 0.33 | 5.2 ± 0.36
QDEEMLELPAPAEVAAKNQSLEGD [MLH1] | 5.37 ± 0.59 | 5.66 ± 0.17
QDLKYISPEIMASVLNGKFANLIK [CDC25A] | 2.21 ± 0.22 | 2.24 ± 0.17
QELELVLMISENNFLFRNAASTLT [ANKRD40] | 2.91 ± 0.82 | 3.28 ± 0.74
QEQRLGIRISMSHEEEPLGTAGPL [GMPPB] | 4.82 ± 0.21 | 4.79 ± 0.34
QFLGFSWIFVNLTVRFCILGKESF [HACD3] | 3.49 ± 0.52 | 3.25 ± 0.16
QFVSSVPRCDLVDLGEGKICFCCE [FAM189A2] | 2.67 ± 0.37 | 2.98 ± 0.6
QHLPAQEQWDRLLVLYPTSLAIFS [PLEKHN1] | 2.55 ± 0.53 | 2.6 ± 0.59
QHPDMSVTKVVVHKETEITPEDGE [EPB41L3] | 5.33 ± 0.23 | 5.39 ± 0.21
QHQNKSPPKVKAEDGMQCLQLKET [DLC1] | 5.17 ± 0.47 | 5.2 ± 0.11
